For orientation: IC50 means the concentration needed to halve the response being measured. Low values mean higher potency, high ones lower potency.

Our source for the IC50, ELISA and s/n ratio values is patent US20200283478A1 (Genentech, published 2020).

The target of experiment [1] is T1, His-tagged, full-length PCSK9 (human, UniProt Q8NBP7 31-692).
T1 construct: secreted PCSK9 is autocatalytically cleaved into prodomain and catalytic domain + CRD (from S153), which stay associated; also called His-PCSK9; proprotein convertase subtilisin/kexin type 9; not shown: His tag
T1 sequence (Q8NBP7 31-692 limits assumed): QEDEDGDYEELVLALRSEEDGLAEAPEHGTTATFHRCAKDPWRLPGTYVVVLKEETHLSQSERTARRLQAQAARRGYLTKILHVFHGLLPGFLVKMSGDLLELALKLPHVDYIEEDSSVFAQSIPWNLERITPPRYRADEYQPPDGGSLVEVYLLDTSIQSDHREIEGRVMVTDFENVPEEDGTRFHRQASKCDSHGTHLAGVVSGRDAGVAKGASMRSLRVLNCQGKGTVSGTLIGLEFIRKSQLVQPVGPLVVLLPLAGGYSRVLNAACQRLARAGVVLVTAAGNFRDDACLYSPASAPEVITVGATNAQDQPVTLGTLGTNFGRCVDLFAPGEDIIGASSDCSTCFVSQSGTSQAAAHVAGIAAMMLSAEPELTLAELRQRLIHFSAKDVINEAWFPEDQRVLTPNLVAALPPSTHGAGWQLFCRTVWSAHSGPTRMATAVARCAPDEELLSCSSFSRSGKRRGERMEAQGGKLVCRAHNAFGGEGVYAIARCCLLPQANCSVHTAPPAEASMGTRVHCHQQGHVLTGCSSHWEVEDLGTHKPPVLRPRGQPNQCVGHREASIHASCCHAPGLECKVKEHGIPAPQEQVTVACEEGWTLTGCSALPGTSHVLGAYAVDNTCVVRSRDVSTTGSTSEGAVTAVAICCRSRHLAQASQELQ
Nature of the experiment: TR-FRET competition (PCSK9/EGF(A) assay); competitor EGF(A)-Fc.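 Also: proximity signal from anti-His APC on PCSK9 paired with anti-Fc europium on the Fc ligand, read as normalized TR-FRET ratio across compound dilutions.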 On the technique in general: Time-resolved FRET reads energy transfer from a long-lived donor to a nearby acceptor.

The target of experiment [2] is T2, proprotein convertase subtilisin/kexin type 9 (PCSK9) (human, UniProt Q8NBP7 31-692).
T2 construct: His-tagged full-length PCSK9 in TR-FRET and SPR, biotinylated in phage ELISA; secreted protein is autoprocessed (prodomain plus catalytic/CRD chain starting at S153); also called rec.PCSK9; His-PCSK9
T2 sequence (Q8NBP7 other isoform, or with tags, fused parts or gaps limits assumed): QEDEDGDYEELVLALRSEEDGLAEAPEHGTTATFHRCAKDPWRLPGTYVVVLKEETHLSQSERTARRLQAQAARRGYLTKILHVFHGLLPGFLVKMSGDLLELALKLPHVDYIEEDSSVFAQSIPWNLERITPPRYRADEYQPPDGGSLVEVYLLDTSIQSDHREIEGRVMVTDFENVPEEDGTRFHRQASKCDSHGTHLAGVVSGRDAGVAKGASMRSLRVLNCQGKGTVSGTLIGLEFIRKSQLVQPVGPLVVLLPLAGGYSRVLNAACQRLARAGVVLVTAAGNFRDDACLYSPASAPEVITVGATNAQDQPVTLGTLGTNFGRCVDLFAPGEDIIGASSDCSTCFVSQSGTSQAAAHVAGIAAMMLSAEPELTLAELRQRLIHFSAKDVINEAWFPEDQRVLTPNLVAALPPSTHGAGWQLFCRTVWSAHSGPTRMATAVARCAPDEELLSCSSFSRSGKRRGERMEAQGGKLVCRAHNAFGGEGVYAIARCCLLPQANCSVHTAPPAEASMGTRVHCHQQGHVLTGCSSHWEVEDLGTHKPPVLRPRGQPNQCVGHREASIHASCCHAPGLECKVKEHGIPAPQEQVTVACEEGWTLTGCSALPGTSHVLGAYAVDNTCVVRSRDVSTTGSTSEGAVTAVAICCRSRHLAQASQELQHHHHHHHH
In words: phage spot ELISA. (In general: ELISA stands for enzyme-linked immunosorbent assay.)
From the text: The binding signal of the same phage particle to NeutrAvidin was considered as non-specific binding (“noise”).

In experiment [3] the target is T3, PCSK9Δhelix (human, Chemically biotinylated in the phage ELISAs; the site is not given.).
T3 construct: construct M1-Q692 with engineered TEV site, cleaved by TEV; also called His-PCSK9Δhelix; open groove PCSK9Δhelix
T3 sequence (prodomain, as listed by the source mutant limits assumed, chain 1 of 2): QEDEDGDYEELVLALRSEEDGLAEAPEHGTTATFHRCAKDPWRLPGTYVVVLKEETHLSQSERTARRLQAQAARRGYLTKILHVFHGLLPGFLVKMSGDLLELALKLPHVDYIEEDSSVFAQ
T3 sequence (chain, as listed by the source mutant limits assumed, chain 2 of 2): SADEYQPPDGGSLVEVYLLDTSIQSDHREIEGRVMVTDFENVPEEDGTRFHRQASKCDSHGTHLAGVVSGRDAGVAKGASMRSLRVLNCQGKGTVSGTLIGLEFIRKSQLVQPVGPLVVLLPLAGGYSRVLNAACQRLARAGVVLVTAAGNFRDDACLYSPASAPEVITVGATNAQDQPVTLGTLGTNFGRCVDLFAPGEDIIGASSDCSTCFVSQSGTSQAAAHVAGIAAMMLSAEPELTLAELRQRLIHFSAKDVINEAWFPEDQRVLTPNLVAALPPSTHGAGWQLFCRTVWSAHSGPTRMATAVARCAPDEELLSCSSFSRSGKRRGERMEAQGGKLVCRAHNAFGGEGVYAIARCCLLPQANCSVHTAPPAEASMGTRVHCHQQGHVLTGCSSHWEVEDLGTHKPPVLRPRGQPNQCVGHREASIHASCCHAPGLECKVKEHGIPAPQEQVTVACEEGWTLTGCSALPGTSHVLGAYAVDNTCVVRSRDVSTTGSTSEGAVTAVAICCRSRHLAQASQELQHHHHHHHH
Nature of the experiment: phage spot ELISA.

The target in experiment [4] is T2, proprotein convertase subtilisin/kexin …. In words: phage spot ELISA. This is another data set of the same source.
Experiment [5] addresses T3, PCSK9Δhelix. Nature of the experiment: phage spot ELISA. This is another data set of the same source.

Read-outs that look alike come from different tables or passages of the source. Bridge positions count the residues as written; N and C are the ends. Square brackets hold non-standard residues; d marks the D form.

B1: Compound 103 (Ac-CRLPWNLqRIGLPC-NH2) (peptide)
peptide: Ac-CRLPWNL[dQ]RIGLPC-NH2
modifications: disulfide 1-14
SMILES: CC[C@H](C)[C@@H]1NC(=O)[C@H](CCCNC(=N)N)NC(=O)[C@@H](CCC(N)=O)NC(=O)[C@H](CC(C)C)NC(=O)[C@H](CC(N)=O)NC(=O)[C@H](Cc2c[nH]c3ccccc23)NC(=O)[C@@H]2CCCN2C(=O)[C@H](CC(C)C)NC(=O)[C@H](CCCNC(=N)N)NC(=O)[C@@H](NC(C)=O)CSSC[C@@H](C(N)=O)NC(=O)[C@@H]2CCCN2C(=O)[C@H](CC(C)C)NC(=O)CNC1=O
In turn, B1 yielded an IC50 in experiment [1] greater than 50 µM.

B2: Compound 100 (Ac-CRLPWNLQRIGlPC-NH2) (peptide)
peptide: Ac-CRLPWNLQRIG[dL]PC-NH2
modifications: disulfide 1-14
SMILES: CC[C@H](C)[C@@H]1NC(=O)[C@H](CCCNC(=N)N)NC(=O)[C@H](CCC(N)=O)NC(=O)[C@H](CC(C)C)NC(=O)[C@H](CC(N)=O)NC(=O)[C@H](Cc2c[nH]c3ccccc23)NC(=O)[C@@H]2CCCN2C(=O)[C@H](CC(C)C)NC(=O)[C@H](CCCNC(=N)N)NC(=O)[C@@H](NC(C)=O)CSSC[C@@H](C(N)=O)NC(=O)[C@@H]2CCCN2C(=O)[C@@H](CC(C)C)NC(=O)CNC1=O
As for B2, the IC50 in experiment [1] is greater than 50 µM.
In the case of TAFTSWEEYLDWVGSGMPWNLARIER [SEQ ID NO 318], in experiment [2], the ELISA turned out to be 2.86 and the s/n ratio was determined as 27.8. In the experiment with PCSK9Δhelix [3], the ELISA stood at 3 and the s/n ratio came out at 30.3.

B3: Compound 102 (Ac-CRLPWNLQrIGLPC-NH2) (peptide)
peptide: Ac-CRLPWNLQ[dR]IGLPC-NH2
modifications: disulfide 1-14
SMILES: CC[C@H](C)[C@@H]1NC(=O)[C@@H](CCCNC(=N)N)NC(=O)[C@H](CCC(N)=O)NC(=O)[C@H](CC(C)C)NC(=O)[C@H](CC(N)=O)NC(=O)[C@H](Cc2c[nH]c3ccccc23)NC(=O)[C@@H]2CCCN2C(=O)[C@H](CC(C)C)NC(=O)[C@H](CCCNC(=N)N)NC(=O)[C@@H](NC(C)=O)CSSC[C@@H](C(N)=O)NC(=O)[C@@H]2CCCN2C(=O)[C@H](CC(C)C)NC(=O)CNC1=O
Regarding B3, the IC50 in experiment [1] is greater than 50 µM.
As for TAFTSWEEYLDWVGSGNELWNINRLRSS [SEQ ID NO 317], the ELISA came to 2.94 in experiment [2] and 2.76 with PCSK9Δhelix [3]. Further, the s/n ratio in experiment [2] came to 12; with PCSK9Δhelix [3], 13.2.

B4: Compound 101 (Ac-CRLPWNLQRiGLPC-NH2) (peptide)
peptide: Ac-CRLPWNLQR[dI]GLPC-NH2
modifications: disulfide 1-14
SMILES: CC[C@@H](C)[C@H]1NC(=O)[C@H](CCCNC(=N)N)NC(=O)[C@H](CCC(N)=O)NC(=O)[C@H](CC(C)C)NC(=O)[C@H](CC(N)=O)NC(=O)[C@H](Cc2c[nH]c3ccccc23)NC(=O)[C@@H]2CCCN2C(=O)[C@H](CC(C)C)NC(=O)[C@H](CCCNC(=N)N)NC(=O)[C@@H](NC(C)=O)CSSC[C@@H](C(N)=O)NC(=O)[C@@H]2CCCN2C(=O)[C@H](CC(C)C)NC(=O)CNC1=O
For B4, the IC50 in experiment [1] was greater than 50 µM.
In the case of TAFTSWEEYLDWVGSGVVLWNHSRIL [SEQ ID NO 313], the ELISA in experiment [2] is 2.95; with PCSK9Δhelix [3], 2.96. The values for the s/n ratio (in experiment [2]; in the experiment with PCSK9Δhelix [3]) were 26.8 and 26.6, respectively.

B5: Compound 104 (Ac-CRLPWNlQRIGLPC-NH2) (peptide)
peptide: Ac-CRLPWN[dL]QRIGLPC-NH2
modifications: disulfide 1-14
SMILES: CC[C@H](C)[C@@H]1NC(=O)[C@H](CCCNC(=N)N)NC(=O)[C@H](CCC(N)=O)NC(=O)[C@@H](CC(C)C)NC(=O)[C@H](CC(N)=O)NC(=O)[C@H](Cc2c[nH]c3ccccc23)NC(=O)[C@@H]2CCCN2C(=O)[C@H](CC(C)C)NC(=O)[C@H](CCCNC(=N)N)NC(=O)[C@@H](NC(C)=O)CSSC[C@@H](C(N)=O)NC(=O)[C@@H]2CCCN2C(=O)[C@H](CC(C)C)NC(=O)CNC1=O
In the case of B5, the IC50 in experiment [1] was greater than 50 µM.
On to TAFTSWEEYLDWVGSGGEYLWNLKRLES [SEQ ID NO 320], for which the figures for the ELISA (in experiment [2]; with PCSK9Δhelix [3]) were 2.84 and 2.94, respectively. Besides, the s/n ratio was 28.7 in experiment [2] and 26 with PCSK9Δhelix [3].
The corresponding values for TAFTSWEEYLDWVGSGMVYVDRGVRVFT [SEQ ID NO 322] are 2.82, 2.71, 27.9 and 25.1.
For TAFTSWEEYLDWVGSGPLLWNLQKVH [SEQ ID NO 310], in experiment [2], the ELISA turned out to be 2.75 and the s/n ratio is 23.5. Also, in the experiment with PCSK9Δhelix [3], the ELISA turned out to be 2.76 and the s/n ratio came to 24.4.

B6: Compound 107 (Ac-CRLpWNLQRIGLPC-NH2) (peptide)
peptide: Ac-CRL[dP]WNLQRIGLPC-NH2
modifications: disulfide 1-14
SMILES: CC[C@H](C)[C@@H]1NC(=O)[C@H](CCCNC(=N)N)NC(=O)[C@H](CCC(N)=O)NC(=O)[C@H](CC(C)C)NC(=O)[C@H](CC(N)=O)NC(=O)[C@H](Cc2c[nH]c3ccccc23)NC(=O)[C@H]2CCCN2C(=O)[C@H](CC(C)C)NC(=O)[C@H](CCCNC(=N)N)NC(=O)[C@@H](NC(C)=O)CSSC[C@@H](C(N)=O)NC(=O)[C@@H]2CCCN2C(=O)[C@H](CC(C)C)NC(=O)CNC1=O
The molecule B6 showed an IC50 in experiment [1] greater than 50 µM.
For TAFTSWEEYLDWVGSGVPWNLARL [SEQ ID NO 314], the ELISA in experiment [2] was found to be 2.82; with PCSK9Δhelix [3], 2.68. In addition, the results for the s/n ratio (in experiment [2]; with PCSK9Δhelix [3]) were 29.3 and 27.3, respectively.
On to TAFTSWEEYLDWVGSGVPWNLAKI [SEQ ID NO 315], for which, in experiment [2], the ELISA turned out to be 2.69 and the s/n ratio amounted to 22.4. Also, in the experiment with PCSK9Δhelix [3], the ELISA amounted to 2.67 and the s/n ratio came to 24.1.
For TAFTSWEEYLDWVGSGTRYADRGVMVYSLS [SEQ ID NO 321], the ELISA is 2.85 in experiment [2], 2.81 with PCSK9Δhelix [3], 3.03 in experiment [4] and 3.03 with PCSK9Δhelix [5]. The s/n ratio in experiment [2] was 23; with PCSK9Δhelix [3] it was 22.8; in experiment [4], 30.3; in the experiment with PCSK9Δhelix [5], 27.5.

B7: Compound 105 (Ac-CRLPWnLQRIGLPC-NH2) (peptide)
peptide: Ac-CRLPW[dN]LQRIGLPC-NH2
modifications: disulfide 1-14
SMILES: CC[C@H](C)[C@@H]1NC(=O)[C@H](CCCNC(=N)N)NC(=O)[C@H](CCC(N)=O)NC(=O)[C@H](CC(C)C)NC(=O)[C@@H](CC(N)=O)NC(=O)[C@H](Cc2c[nH]c3ccccc23)NC(=O)[C@@H]2CCCN2C(=O)[C@H](CC(C)C)NC(=O)[C@H](CCCNC(=N)N)NC(=O)[C@@H](NC(C)=O)CSSC[C@@H](C(N)=O)NC(=O)[C@@H]2CCCN2C(=O)[C@H](CC(C)C)NC(=O)CNC1=O
For the molecule B7, the IC50 in experiment [1] is greater than 50 µM.
TAFTSWEEYLDWVGSGKLWNLTRISS [SEQ ID NO 312]: in experiment [2], the ELISA turned out to be 2.87 and the s/n ratio amounted to 28.1. In addition, in the experiment with PCSK9Δhelix [3], the ELISA turned out to be 2.69 and the s/n ratio came to 25.8.

B8: Compound 106 (Ac-CRLPwNLQRIGLPC-NH2) (peptide)
peptide: Ac-CRLP[dW]NLQRIGLPC-NH2
modifications: disulfide 1-14
SMILES: CC[C@H](C)[C@@H]1NC(=O)[C@H](CCCNC(=N)N)NC(=O)[C@H](CCC(N)=O)NC(=O)[C@H](CC(C)C)NC(=O)[C@H](CC(N)=O)NC(=O)[C@@H](Cc2c[nH]c3ccccc23)NC(=O)[C@@H]2CCCN2C(=O)[C@H](CC(C)C)NC(=O)[C@H](CCCNC(=N)N)NC(=O)[C@@H](NC(C)=O)CSSC[C@@H](C(N)=O)NC(=O)[C@@H]2CCCN2C(=O)[C@H](CC(C)C)NC(=O)CNC1=O
B8 had an IC50 in experiment [1] greater than 50 µM.
For TAFTSWEEYLDWVGSGGHPLWNLSRI [SEQ ID NO 316], in experiment [2], the ELISA is 2.73 and the s/n ratio came to 25.7. Further, in the experiment with PCSK9Δhelix [3], the ELISA stood at 2.6 and the s/n ratio was determined as 9.12.
For the molecule TAFTSWEEYLDWVGSGSCSWNVERIRGCSV [SEQ ID NO 311], in experiment [2], the ELISA turned out to be 2.92 and the s/n ratio came out at 18.8. Also, in the experiment with PCSK9Δhelix [3], the ELISA was 2.83 and the s/n ratio came to 26.
On to TAFTSWEEYLDWVGSGALWNMRRVESVAFR [SEQ ID NO 319], for which, in experiment [2], the ELISA worked out at 3.09 and the s/n ratio was determined as 23.9. Moreover, in the experiment with PCSK9Δhelix [3], the ELISA amounted to 3.04 and the s/n ratio came to 20.1.
Consider TAFTSWEEYLDWVGSGRGGYELNIPR [SEQ ID NO 326], for which the ELISA in experiment [2] came out at 2.93; in the experiment with PCSK9Δhelix [3], 2.69; in experiment [4] it was 3.13; with PCSK9Δhelix [5], 2.92. For the same molecule, the s/n ratio in experiment [2] stood at 26.1; with PCSK9Δhelix [3], 18.8; in experiment [4], 29.8; with PCSK9Δhelix [5] it was 25.6.
